# Laboratory results as given in the RNAGym collection of RNA variant scans (doi:10.1093/molbev/msab373).
# B1: Azoarcus group I ribozyme (parent)
# chain: GUGCCUUGCGCCGGGAAACCACGCAAGGGAUGGUGUCAAAUUCGGCGAAACCUAAGCGCCCGCCCGGGCGUAUGGCAACGCCGAGCCAAGCUUCGGCGCCUGCGCCGAUGAAGGUGUAGAGACUAGACGGCACCCACCUAAGGCAAACGCUAUGGUGAAGGCAUAGUCCAGGGAGUGGCGAAAGUCACACAAACCGG
# Variants of: B1
# Assay: reverse-splicing fitness (ratio to wild type); higher = more active; in vitro selection; Mg2+ level not given
# Summary of the method: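 An in vitro group I ribozyme library with randomized positions was T7-transcribed and gel-purified. In triplicate, 10 pmol RNA in EPPS pH 7.5 was reacted with 50 pmoles of a 30-nt RNA substrate for 1 h at 37 °C across several added MgCl2 levels (1–48 mM), then stopped with EDTA. Products were reverse transcribed from a substrate-complementary primer, PCR-amplified and sequenced (HiSeq 4000). Fitness is a variant's read proportion after selection over that before, normalised to wild type.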
row,Variant,reverse-splicing fitness
1,C82G A111C A120G A145U C150U C169G,0.0113
2,C82G A111C A120C C150U U176C,0.0226
3,C82G A111C A120C C150U U176A,0.0157
4,C82G A111C A120C C150U U176G,0.00767
5,C82G A111C A120U A145C C150A C169U U176G,0.00237
6,C82G A111C A120U A145C C150A C169U U176C,0.00331
7,C82G A111C A120U A145C C150A C169U U176A,0.00291
8,C82G A111C A120G A145G C150G C169U,0.00859
9,C82G A111C A120G A145G C150G C169G,0.00765
10,C82G A111C A120G A145G C150G C169A,0.009
11,C82G A111C A120G A145C C150A U176G,0.00463
12,C82G A111C A120G A145C C150A U176C,0.011
13,C82G A111C A120G A145C C150A U176A,0.0121
14,C82G A111C A120G A145C C150U C169U U176G,0.0048
15,C82G A111C A120G A145C C150U C169U U176A,0.0147
16,C82G A111C A120G A145C C150U C169U U176C,0.0119
17,C82G A111C A120G A145G C150A C169G U176C,0.0267
18,C82G A111C A120G A145G C150A C169G U176G,0.0058
19,C82G A111C A120G A145G C150A C169G U176A,0.0158
20,C82G A111C A120G A145G C169U,0.0104
21,C82G A111C A120G A145G C169A,0.0114

row,Variant,reverse-splicing fitness
1,C82G A111C A120G A145G C169G,0.0143
2,C82G A111C A120G A145C C150U C169G U176G,0.00541
3,C82G A111C A120G A145C C150U C169G U176A,0.0216
4,C82G A111C A120G A145C C150U C169G U176C,0.0133
5,C82G A111C A120G C150A C169G U176A,0.0195
6,C82G A111C A120G C150A C169G U176G,0.00569
7,C82G A111C A120G C150A C169G U176C,0.025
8,C82G A111C A120G A145C C150A C169A U176G,0.00562
9,C82G A111C A120G A145C C150A C169A U176C,0.00779
10,C82G A111C A120G A145C C150A C169A U176A,0.0124
11,C82G A111C A120G A145U C150U C169A U176C,0.0109
12,C82G A111C A120G A145U C150U C169A U176G,0.006
13,C82G A111C A120G A145U C150U C169A U176A,0.0109
14,C82G A111C A120U A145C C150A C169G,0.00326
15,C82G A111C A120U A145C C150A C169A,0.00203
16,C82G A111C A120U A145C C150A C169U,0.00329
17,C82G A111C A120G A145C C150A C169G,0.00794
18,C82G A111C A120G A145C C150A C169A,0.00918
19,C82G A111C A120G A145C C150A C169U,0.00679
20,C82G A111C A120G A145C C150G U176C,0.0129
21,C82G A111C A120G A145C C150G U176G,0.00269

row,Variant,reverse-splicing fitness
1,C82G A111C A120G A145C C150G U176A,0.00787
2,C82G A111C A120G C150G C169U U176C,0.0132
3,C82G A111C A120G C150G C169U U176G,0.00589
4,C82G A111C A120G C150G C169U U176A,0.0081
5,C82G A111C A120G A145G C150A C169U U176A,0.014
6,C82G A111C A120G A145G C150A C169U U176G,0.00638
7,C82G A111C A120G A145G C150A C169U U176C,0.0159
8,C82G A111C A120U A145C,0.0432
9,C82G A111C A120G A145G C169U U176G,0.00423
10,C82G A111C A120G A145G C169U U176C,0.0145
11,C82G A111C A120G A145G C169U U176A,0.0161
12,C82G A111C A120C C169U U176A,0.0183
13,C82G A111C A120C C169U U176C,0.0163
14,C82G A111C A120C C169U U176G,0.00655
15,C82G A111C A120G A145G C150G C169A U176G,0.00843
16,C82G A111C A120G A145G C150G C169A U176A,0.0144
17,C82G A111C A120G A145G C150G C169A U176C,0.0135
18,C82G A111C A120U A145C C150G C169A U176C,0.00252
19,C82G A111C A120U A145C C150G C169A U176G,0.00274
20,C82G A111C A120U A145C C150G C169A U176A,0.00295
21,C82G A111C A120G C150U U176A,0.0119

row,Variant,reverse-splicing fitness
1,C82G A111C A120G C150U U176C,0.0217
2,C82G A111C A120G C150U U176G,0.00715
3,C82G A111C A120G C169A U176A,0.016
4,C82G A111C A120G C169A U176C,0.0206
5,C82G A111C A120G C169A U176G,0.00442
6,C82G A111C A120C C150G C169U,0.00996
7,C82G A111C A120C C150G C169G,0.00702
8,C82G A111C A120U A145C C150G C169U U176C,0.00324
9,C82G A111C A120U A145C C150G C169U U176G,0.00222
10,C82G A111C A120U A145C C150G C169U U176A,0.00358
11,C82G A111C A120G A145U C169G U176C,0.0132
12,C82G A111C A120G A145U C169G U176G,0.00458
13,C82G A111C A120G A145U C169G U176A,0.0117
14,C82G A111C A120G A145G C169G U176C,0.0288
15,C82G A111C A120G A145G C169G U176A,0.0188
16,C82G A111C A120G A145G C169G U176G,0.00514
17,C82G A111C A120C C150U C169G U176C,0.0171
18,C82G A111C A120C C150U C169G U176G,0.0066
19,C82G A111C A120C C150U C169G U176A,0.0152
20,C82G A111C A120G A145C C150G C169U,0.00721
